The target in this assay is GLP-1 receptor (GLP-1 cyclase assay of Example 11) (UniProt P32301). The assay is described as follows: cell-based or functional assay.

Data on one substance can be found in patent US20100286365A1.

Sequence of GLP-1 receptor (GLP-1 cyclase assay of Example 11) (P32301 22-463 limits assumed): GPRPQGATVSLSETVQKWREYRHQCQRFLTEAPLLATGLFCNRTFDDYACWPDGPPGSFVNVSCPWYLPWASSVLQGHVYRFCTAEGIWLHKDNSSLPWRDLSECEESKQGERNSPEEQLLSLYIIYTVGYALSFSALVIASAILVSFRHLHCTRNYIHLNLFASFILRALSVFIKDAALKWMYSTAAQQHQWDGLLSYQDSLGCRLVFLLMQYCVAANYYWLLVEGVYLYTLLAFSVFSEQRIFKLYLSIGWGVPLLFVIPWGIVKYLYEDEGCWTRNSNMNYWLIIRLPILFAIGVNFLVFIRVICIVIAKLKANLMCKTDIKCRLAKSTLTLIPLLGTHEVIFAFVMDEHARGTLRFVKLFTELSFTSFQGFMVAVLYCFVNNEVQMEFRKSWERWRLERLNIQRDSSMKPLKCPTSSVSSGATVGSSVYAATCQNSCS

Turning to “[^14Leu,^28Gln]Exendin-4-(1-32)-fGLP-1-(33-37)-miniPEG-(S)-2,6-diamino-1-(pyrrolidin-2-cyano-1-yl)hexan-1-amide (peptide)”, the GLP Cyclase EC50 was determined as 0.017 nM.
